We go through 5 variants from IntAct's records for PubMed 15205472.

To fix the notation:
B1: Prospero homeobox protein 1 (Homo sapiens), Q92786 (parent)
chain: MPDHDSTALLSRQTKRRRVDIGVKRTVGTASAFFAKARATFFSAMNPQGSEQDVEYSVVQHADGEKSNVLRKLLKRANSYEDAMMPFPGATIISQLLKNNMNKNGGTEPSFQASGLSSTGSEVHQEDICSNSSRDSPPECLSPFGRPTMSQFDMDRLCDEHLRAKRARVENIIRGMSHSPSVALRGNENEREMAPQSVSPRESYRENKRKQKLPQQQQQSFQQLVSARKEQKREERRQLKQQLEDMQKQLRQLQEKFYQIYDSTDSENDEDGNLSEDSMRSEILDARAQDSVGRSDNEMCELDPGQFIDRARALIREQEMAENKPKREGNNKERDHGPNSLQPEGKHLAETLKQELNTAMSQVVDTVVKVFSAKPSRQVPQVFPPLQIPQARFAVNGENHNFHTANQRLQCFGDVIIPNPLDTFGNVQMASSTDQTEALPLVVRKNSSDQSASGPAAGGHHQPLHQSPLSATTGFTTSTFRHPFPLPLMAYPFQSPLGAPSGSFSGKDRASPESLDLTRDTTSLRTKMSSHHLSHHPCSPAHPPSTAEGLSLSLIKSECGDLQDMSEISPYSGSAMQEGLSPNHLKKAKLMFFYTRYPSSNMLKTYFSDVKFNRCITSQLIKWFSNFREFYYIQMEKYARQAINDGVTSTEELSITRDCELYRALNMHYNKANDFEVPERFLEVAQITLREFFNAIIAGKDVDPSWKKAIYKVICKLDSEVPEIFKSPNCLQELLHE
B2: Nuclear receptor subfamily 5 group A member 2 (Homo sapiens), O00482-2 (parent)
chain: MSSNSDTGDLQESLKHGLTPIVSQFKMVNYSYDEDLEELCPVCGDKVSGYHYGLLTCESCKGFFKRTVQNNKRYTCIENQNCQIDKTQRKRCPYCRFQKCLSVGMKLEAVRADRMRGGRNKFGPMYKRDRALKQQKKALIRANGLKLEAMSQVIQAMPSDLTISSAIQNIHSASKGLPLNHAALPPTDYDRSPFVTSPISMTMPPHGSLQGYQTYGHFPSRAIKSEYPDPYTSSPESIMGYSYMDSYQTSSPASIPHLILELLKCEPDEPQVQAKIMAYLQQEQANRSKHEKLSTFGLMCKMADQTLFSIVEWARSSIFFRELKVDDQMKLLQNCWSELLILDHIYRQVVHGKEGSIFLVTGQQVDYSIIASQAGATLNNLMSHAQELVAKLRSLQFDQREFVCLKFLVLFSLDVKNLENFQLVEGVQEQVNAALLDYTMCNYPQQTEKFGQLLLRLPEIRAISMQAEEYLYYKHLNGDVPYNNLLIEMLHAKRA

Variants of B1 are the subject of the first test. The conditions noted are these: with NR5A2, O00482-2.
Consider L70A;L73A, for which the “effect of a mutation on the interaction” value is recorded as “disrupting interaction”.

Variants of B2 are the subject of the next test. The conditions noted are these: with prox1_human PROX1, Q92786.
With K301A;Q305A;F308A, the “effect of a mutation on the interaction” value was “decreasing interaction”.

Take D326A;D327A;M329A: the “effect of a mutation on the interaction” value was “decreasing interaction”.

In the case of Q273A;Q281A;Q282A, the “effect of a mutation on the interaction” value was “disrupting interaction”.

For the variant L453A;L454A, the “effect of a mutation on the interaction” value is recorded as “disrupting interaction”.
